In PMC12404239:

How the values were obtained:
[1] = biological target: SARS-CoV-2 spike glycoprotein (S) (SARS-CoV-2) (UniProt P0DTC2); assay: […], running buffer TBS, […]
[2] = biological target: influenza B haemagglutinin (HA) B/Maryland/15/16 (influenza B virus (B/Maryland/15/16)); assay: […], running buffer TBS, […]

In the case of “SARS-CoV-2 spike glycoprotein (S) (from UniProt P0DTC2 14-1273) (natural protein)”, the stoichiometry N [1] is reported as 3.

For “influenza B haemagglutinin (HA) B/Maryland/15/16 (natural protein)”, the stoichiometry N [2] was 3.
